{"source": "patent US7977317B2", "about": "“Compositions and methods for modulating blood-brain barrier transport” (Raptor Pharmaceutical Inc., priority 2001, dated 2011)", "test": "Brain uptake one hour after i.v. injection", "assay_type": "in vivo", "conditions": "mice, one hour after i.v. injection of [125I]-protein (FIG. 11a)", "protocol": "FIG. 11 examines the accumulation and transcytosis of p97. FIG. 11a, of [^125I]-p97, [^125I]-BSA and [^125I]-holo-transferrin one hour after i.v. injection. The radioactivity in brain was compared between the three compounds. (n=3); FIG. 11b, Accumulation of p97 and transferrin into the mouse brain parenchyma. In situ brain perfusion was performed with human [^125I]-p97 or [^125I]-holo-transferrin at a final concentration of 10 nM via a catheter inserted in the right common carotid artery. The volume of distribution (VD) of [^125I]-proteins were obtained in the whole brain homogenate (white bars), in brain capillaries (solid bars) and in brain parenchyma (hatched bars) after isolation of the right hemisphere and capillary depletion. Results were obtained for p97 (n=10) and for holo-transferrin (n=6); FIG. 11c, Transcytosis of p97 across BBCEC monolayers. Transcytosis experiments were performed 37° C. (open circles) and 4° C. (closed circles) with BBCEC monolayers. […] Apical-to-basal and basal-to-apical transport of [^125I]-p97 (25 nM) was measured for 2 hrs at 37° C. At the end of the experiment, [^125I]-p97 was assessed in the lower or upper chambers of each well by TCA precipitation (n=4).\nA. Brain uptake and in situ brain perfusion. […] The serum and brain samples were collected and the levels of radioactivity were measured. […]", "data": [{"substance": "transferrin: transferrin (Tf), iron-binding serum protein used as comparator and competitor", "values": [{"measurement": "Brain/serum ratio", "result": 0.008}]}]}
